For this assay, the target named is MERS-CoV PLpro-[change] (wild type) (MERS-CoV) (UniProt K9N7C7).

As to “Ub-AMC (from UniProt P0CG48 1-76) (natural protein)”, the Km of Ub-AMC hydrolysis (steady-state kinetics, 25 °C) worked out at 16.6 µM.

These data come from paper PMC7114298.
